Target: His-Pak4cat (UniProt O96013)
UniProt O96013, sequence (O96013 286-591): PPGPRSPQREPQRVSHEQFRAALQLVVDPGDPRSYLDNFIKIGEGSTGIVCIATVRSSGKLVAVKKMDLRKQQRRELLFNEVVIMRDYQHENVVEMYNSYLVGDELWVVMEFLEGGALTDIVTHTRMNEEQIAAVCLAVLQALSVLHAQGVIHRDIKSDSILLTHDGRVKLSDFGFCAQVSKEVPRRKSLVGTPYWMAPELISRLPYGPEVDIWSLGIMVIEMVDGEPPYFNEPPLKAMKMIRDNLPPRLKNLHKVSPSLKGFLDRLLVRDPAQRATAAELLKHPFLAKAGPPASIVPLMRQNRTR

GST-Inka2-iBox, sequence (Q9NTI7 133-193): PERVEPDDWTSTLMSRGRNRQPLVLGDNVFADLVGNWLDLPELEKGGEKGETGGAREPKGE
GST-Inka1-iBox, sequence (Q96EL1 166-203): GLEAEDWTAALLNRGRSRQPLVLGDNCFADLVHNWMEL

IC50 of inhibition of His-Pak4cat kinase activity (in vitro kinase assay, ADP-Glo luminescence, AKT1 peptide substrate; dose-response with 0.75 ng-400 ng of GST-Inka1-iBox) [nM] | IC50 of inhibition of His-Pak4cat kinase activity (in vitro kinase assay, ADP-Glo luminescence, AKT1 peptide substrate; dose-response with 0.75 ng-400 ng of GST-Inka2-iBox) [nM] | Substance
67.7 |  | GST-Inka1-iBox (from UniProt Q96EL1 166-203) (domain or fragment)
 | 60.3 | GST-Inka2-iBox (from UniProt Q9NTI7 133-193) (domain or fragment)

Reference: PMC9612522
